Measured values published in the nanobody polyreactivity screen of Harvey et al. (2022).

Assay: yeast display, Sf9 membrane polyspecificity reagent, FACS + sequencing; frameworks hold sequencing errors
In short: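 Synthetic nanobody libraries on Saccharomyces cerevisiae BJ5465 were galactose-induced for 36–48 hours, stained 1 hour at 4 °C with 10% biotinylated, detergent-solubilized Sf9 membrane reagent and enriched on streptavidin microbeads. FACS then separated cells into low and high (top ~1%) gates by anti-HA (expression) and streptavidin (reagent binding) fluorescence. Genes were colony-PCR amplified, MiSeq 2 × 250 sequenced and CDR-length filtered. A clone's polyreactivity label is that of its gate of origin.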

Sequence | polyreactivity (PSR sort gate)
QVQLVESGGGLVQAGGSLRLSCAAAGLTFEWYTMGWYRQAPGKERELVADISGDGSTYYADSVKGRFTISRDNAKNTVYLQMNSLKPEDTAVYYCAASFWGFAMGYWGQGTQVTVSS | high polyreactivity
QVQLVESGGGLVQAGGSLRLSCAAAGRTFFKYAMGWYRQAPGKERELVATITSSGGITYADSVKGRFTISRDNAKNTVYLQMNRLKPEDTAVYYCNARVWVTHYSELNYWVQGTQVTVSS | low polyreactivity
QVQLVESGGGLVQAGGSLRLSCAAAGSIFSYYAMGWSRPEPGKEREFVATIRRSGASTYYADSVKGRFTISRDNAKNTGYLQMNSLKPEDTAVYYCNAASARRPIYEAARGSKYDYWGQRTQVTVSS | low polyreactivity
QVQLVESGGGLVQAGGSLRLSCAAAGSIFYYNAMGWYRQAPGKERELVASIRAHGGNTYYADSVKGRFTISRDNAKNTVYLQMNSLKPEDTAVYYCAKESRYAHLYYYWGLGTQVTVSS | low polyreactivity
QVQLVESGGGLVQAGGSLRLSCAACGFTFTIYAMGWYRQAPGKERELVATISGRAGRTYYADSVKGRFTISRDNAKNTVYLQMNSLKPEDTAVYYCTAGQWRYPGLYYYWGQGTQVTVSS | high polyreactivity
QVQLVESGGGLVQAGGSLRLSCAACGNTFTYYAMGLYRQAPGKERELVASISSGVSTNYADSVKGRFTISRDNAKNTLYLHINSLKPEDTAVYYCARGWSFSTRRFQHTRYYYWGQGTQVTVSS | high polyreactivity
QVQLVESGGGLVQAGGSLRLSCAACGRIFTPNAMGWYRPAPGKERELVAAITWSGDNTYADSVKGRFTISRDNAKNTVYLQMNSLKPEDTAVYYCAAAYGYGHKNYGYWRQGTQVTVSS | low polyreactivity
QVQLVESGGGLVQAGGSLRLSCAACGRIFVYYVMGWYRQAPGKERELVAAISNSGTSTYYADSLKGRFTISRDNAKNTVYLQMNSLKPEDTAVYYCNTVGQRWLSDDDYWGQGTQVTVSS | low polyreactivity
QVQLVESGGGLVQAGGSLRLSCAACGRTFQSNAMGWYRQAPGKERELVARITRRGGITYYADSVKGRFTISRDNAKNTVYLQMNSLKPEDTAVYYCNRYLYDSYRWAALQRTGYNSWGQGTQVTVSS | high polyreactivity
QVQLVESGGGLVQAGGSLRLSCAACGRTFRRNAMGWYREAPGKERELVAAISTSGGRTYYADSVKGRFTISRDNAKNTVYLQMNSLKPEDTAVYYCAADIPQTDGYWGQGTQVTVSS | low polyreactivity
QVQLVESGGGLVQAGGSLRLSCAACGRTFVDYVMGSYRQAPGKERELVAAISRSGSTYYADSVKGRFTISRDNAKNTVYLQRNSLKPEDTAVYYCAASSVALPWYASWYVYGYEYCGQGTQVTVSS | low polyreactivity
QVQLVESGGGLVQAGGSLRLSCAACGRTFVSYSMGWYRQAPGKERELVAAISRSGGRTYYADSVKGRFTISRDNAKNTVYLQMNSLKPEDTAVYYCATIQYGTLARYDYWGQGTQVTVSS | high polyreactivity
QVQLVESGGGLVQAGGSLRLSCAACGRTFYFYTMGWYRQAPGKERELVAAITRSGVSTYYADSVKGRFTISRDNAKNTVYLQMNSLKPEDTAVYYCAVRTWGYTQYYYWGQGTQVTVSS | high polyreactivity
QVQLVESGGGLVQAGGSLRLSCAACGRTLRTYGMGWYRQAPGKERELVATITRRGDSTYYADSVKGRFTISRDNAKNTVYLQMNSLKPEDTAVYYSNTASYGRHQFRKSSKMDYWGQGTQVTVSS | high polyreactivity
QVQLVESGGGLVQAGGSLRLSCAACGSIFDRYVMGWYRQAPGKERELVAAISSSGGSTYYADSVKGRFTISRDNAKNTVYLQMNSLKPEDTAVYYCAAKFSYGRYNYWGQGTQVTVSS | high polyreactivity
QVQLVESGGGLVQAGGSLRLSCAACGSIFEFNTMGWYRQAPGKERELVAAISSSGGRTYYADSVKGRFTISRDNAKNSVYLQMNSLKPEDTGVYYCNARRLVHNPDYDYWGQGTQVTVSS | high polyreactivity
QVQLVESGGGLVQAGGSLRLSCAACGSIFNYYTMGWYRTAPGKERELVADISWSGGSTYYADSVKGRFTISRDNAKNTVYLQMNSLKPEETAVYYCAADFGLFPYVGTGYYYWGQGTQVTVSS | low polyreactivity
QVQLVESGGGLVQAGGSLRLSCAACGSIFVRNTMGWDRQAPGKERELVASIDWSGGITSYADSVKGRFTISRDNAKNTVYLQMNIRKPEDTAVYFCNAVFLYPFNVPTMEYWGQGTQVTVSS | low polyreactivity
QVQLVESGGGLVQAGGSLRLSCAACGSIFYGNAMGWDRQAPGKVRELVAAITQGATSTYYADSVKGRFTISRDNAKNTVDLQMNSLKPEDTAVYYCAAVLAWRYTYYYWGQGTQVTVSS | high polyreactivity
QVQLVESGGGLVQAGGSLRLSCAACGSIVRDYAMGWYRQAPGKERELVAAIRQSGGRTYYADSVKGRFTISRDNAKNTVYLQMNSLKPDDTAVYYCIARRANYWKKASTQYYYWGQGTQVTVSS | high polyreactivity
QVQLVESGGGLVQAGGSLRLSCAACGSTFFPYAMGWYRQAPGKERELVAAITSGGRTKYADSVKGRFTISRDNAKNTVYLQMNSLKPEDTAVYYCAARGLIKEYGGPYRRFGYWGQGTQVTVSS | high polyreactivity
QVQLVESGGGLVQAGGSLRLSCAACGSTFYAYAMGWYRQAPGKERELVAAIDSGGSTYYADSVKGRFTISRYNAKNTVYLEMNSLKPEDTAVYYCAVRHRYTRAYRGRDYWGQGTQVTVSS | low polyreactivity

Sequence | polyreactivity (PSR sort gate)
QVQLVESGGGLVQAGGSLRLSCAAFPYAMGWYIPAPAKERELVAAISSSGTSTYYADSVKGRFTISRDNAKNTVYLQMNSLKPEDTAVYYCNTALSRLSQHDYWGQGTQVTVSS | low polyreactivity
QVQLVESGGGLVQAGGSLRLSCAAPGSTFGRYAMGWYRQAPGKERELVAAISKSGGSTYYADSVKGRFTISRDNAKNTVYLQMNSLKPEDTAVYYCAATTTRYSYEYWGQGTQVTVSS | low polyreactivity
QVQLVESGGGLVQAGGSLRLSCAAPGSTLSYYAMGWYRQATGKERELVAAISLSVGSTYYADSVKGRFTISRDNAKNTVYLQMNSLKPEDTAVYYCAADDFYSGPFRGDYWGQGTQVTVSS | low polyreactivity
QVQLVESGGGLVQAGGSLRLSCAAPGYIFEFYAMGWYRQAPGKERELVAAISWRGGSTYADSVKGRFTISRDNAKNTVYLQMNSLKPEDTAVYYCNADVEGRYDWTENDYWGQGTQVTVSS | low polyreactivity
QVQLVESGGGLVQAGGSLRLSCAASAFILYRYAMGWYRQAPGKERELVAAISRTGGSTYYADSVKGRFTISRDNAKNTVYLQMNSLKPEDTAVYYCNARSSYGLSYRQYGYWGQGTQVTVSS | high polyreactivity
QVQLVESGGGLVQAGGSLRLSCAASAITFYDYPMGWYRQAPGKERELVAAITWNGGDTYYADSVKGRFTISRDNAKNTDYLQMNSLKPEDTAVYYCNATRHYFGGFHYEYYYWGQGTQVTVSS | low polyreactivity
QVQLVESGGGLVQAGGSLRLSCAASARIFGWNAMGWYRQAPGKERELVAAISWRGGSTYYADSVKGRFTISRDNAKNTVYLQMNSLKPEDTAVYYCNALYTRYVSQWFGYWGQGTQVTVSS | high polyreactivity
QVQLVESGGGLVQAGGSLRLSCAASASIFRSYAMGWYRQAPGKERELVAAISWRGDSTYYADSVKGRFTISRDNAKHTVYLQMNSLKPEDTAVYYCNVQRSLRMDYWGQGTQGTVSS | high polyreactivity
QVQLVESGGGLVQAGGSLRLSCAASASIFYIYGIGWYRQAPGKERELVARISSGDRTNYADSVKGRFTISRDNAKNTVYLHMNSLKAEDTAVYYCNARVSYYLGRYYWGQGTQVTVSS | high polyreactivity
QVQLVESGGGLVQAGGSLRLSCAASASISDSYAMGRYRQAPGKERELVAAITSGDSTYYADSVKGRFTISRDNAKNTLYLQMNSLKPEDTAVYYCAKRVSRGRGYGFTDWSEYDYWGQGTQVTVSS | low polyreactivity
QVQLVESGGGLVQAGGSLRLSCAASASNYERYVMGWNRQAPGKERELVAAISRSGGTTYYADSVKGRFTISRDNAKNTVYLQMNSLKPEDTAVYYCAARVPHDSAGYDYWGQATQVTVSS | high polyreactivity
QVQLVESGGGLVQAGGSLRLSCAASASTFPVNAMGWYRQAPGKERELVAAIRSSTGRTYYADSVKGRFTISRDNAKNTVYLQMNSLKPEDTAVYYCAAYYLGQYEYDYWGQGTQVTVSS | low polyreactivity
QVQLVESGGGLVQAGGSLRLSCAASGAIFGFYAMGWYRQAAGKERELVADITFSVGSTNYADSVKGRFTISRDNAKNTVYLQRNSLKPEDTAVYYCAVANVYYEGYDYWGQGTQVTVSS | low polyreactivity
QVQLVESGGGLVQAGGSLRLSCAASGAIFQPYGMGGYSQAPGKERELVAAISRGGTTYYADSVTGRFTISRANAKNTDYLQMNSLKPEETAVYYCAVKGYRYGTRYDYRGQGTQVTVSS | high polyreactivity
QVQLVESGGGLVQAGGSLRLSCAASGAIFVAYAMGWYRQAPGKDRELVAAITYSAGSTYYADSVKGRFTISRDNAKNTVYLQMNSLKPEDTAVYYCAADALVYSFIGYEYWGQGTQVTLSS | low polyreactivity
QVQLVESGGGLVQAGGSLRLSCAASGAIFYYYCMGWYRQAPGKEREWVAGISSRGGRTYYADSVKGRFTISRDNAKNTVYLQMNSLKPVDTAVYYCAADRYYYAYRYFPSGYWGQGTQVTVSS | low polyreactivity
QVQLVESGGGLVQAGGSLRLSCAASGAILDEYSMVWYRPAPGKAREFVAGIRTIGGSTYYADSVKGRFTISRENAKNTVYLQLNSLIPEDTADNYCAADGRTHEPQGWLGGYDYCGQGTQVTVSS | low polyreactivity
QVQLVESGGGLVQAGGSLRLSCAASGAMGWYRQAPGKERELVAGITSGGSTNYADSVKGRFTISRDNAKNTVYLQMNSLKPEDTAVYDCNAVGGPRWLSVGWPYDYWGQGTQVTVSS | low polyreactivity
QVQLVESGGGLVQAGGSLRLSCAASGANFGRNDMGWYRQAPGKERELVAAISWSGGRTYYADSVKGRFTISRDNAKNTVYLQMISLKPEDTAVYYCNRDYYVGRYDYWGQGTQVTVSS | high polyreactivity
QVQLVESGGGLVQAGGSLRLSCAASGATFWRYAMGWYRQAPGKERELVAAISTSGGSTRYADSVKGRFTISRDNAKNTVYLQMNSLKPEDTAVYYCNAQHLARMDYWGQGTQVTVSS | high polyreactivity
QVQLVESGGGLVQAGGSLRLSCAASGCIFTYNTMGWYRQAPGKERELVAAISGRGGRTYYADSVKGRFTISRDNAKNTVYLQMNSLKPEDTAVYYCNARKYSQKIYGNYNYWGKGTQVTVSS | high polyreactivity
